Results taken from patent publication US20260049151A1 (SHENGHE CHINA BIOPHARMACEUTICAL, published 2026).

T1: Human TNFR2 mFc (human, UniProt P20333 23-257)
T1 construct: Bought protein; not shown: mFc
T1 sequence (looked up): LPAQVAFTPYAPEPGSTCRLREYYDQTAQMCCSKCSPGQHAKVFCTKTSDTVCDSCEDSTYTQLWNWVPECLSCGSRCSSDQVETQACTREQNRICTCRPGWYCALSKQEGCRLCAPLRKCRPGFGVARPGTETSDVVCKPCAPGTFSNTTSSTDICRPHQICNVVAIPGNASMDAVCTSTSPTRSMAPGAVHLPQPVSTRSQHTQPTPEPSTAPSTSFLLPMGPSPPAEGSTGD

B1: Antibody J1 (bispecific antibody, human IgG1, kappa)
light: DIQMTQSPSSLSASLGDRVTISCSASQGISNYLNWYQQKPDGTVKLLIYYTSTLHSGVPSRFSGSGSGTDYTLTISSLQPEDIATYYCQQYSKLPWTFGGGTKLEIKRTVAAPSVFIFPPSDEQLKSGTASVVCLLNNFYPREAKVQWKVDNALQSGNSQESVTEQDSKDSTYSLSSTLTLSKADYEKHKVYACEVTHQGLSSPVTKSFNRGEC
heavy: not shown
notes: IgG1 subtype; full-length 4-1BB antibody with TNFR2 VHH at the C-terminus of the heavy chains
B2: Antibody M1 (bispecific antibody, human IgG1, kappa)
light: B1 light
heavy: not shown
notes: IgG1 subtype; full-length 4-1BB antibody with TNFR2 VHH at the N-terminus of the heavy chains
B3: Antibody E1 (bispecific antibody, human IgG1, kappa)
light: DIVMTQSPATLSVSPGERATLSCKASQNVGSNVDWYQQKPGQSPRVLIYKASIRYTGIPARFSGSGSGTEFTLTISILQSEDFAVYFCMQSKSYPITFGQGTKLEIKRTVAAPSVFIFPPSDEQLKSGTASVVCLLNNFYPREAKVQWKVDNALQSGNSQESVTEQDSKDSTYSLSSTLTLSKADYEKHKVYACEVTHQGLSSPVTKSFNRGEC
heavy: not shown
notes: IgG1 subtype; full-length TNFR2 antibody with 4-1BB scFv at the C-terminus of the heavy chains
B4: Antibody H (bispecific antibody, human IgG1, kappa)
light: QVQLQESGPGLVKPSETLSLTCTVSGSSLTSYGVHWVRQPPGKCLEGLGVIWPGGSTNYNSALMSRVTISKDNSKSQVSLKMSSLTAADTAVYYCARVTGTWYFDVWGQGTTVTVSSGGGGSGGGGSGGGGSDIQMTQSPSSLSASLGDRVTISCSASQGISNYLNWYQQKPDGTVKLLIYYTSTLHSGVPSRFSGSGSGTDYTLTISSLQPEDIATYYCQQYSKLPWTFGCGTKLEIKGGGGSGGGGSGGGGSDIVMTQSPATLSVSPGERATLSCKASQNVGSNVDWYQQKPGQSPRVLIYKASIRYTGIPARFSGSGSGTEFTLTISILQSEDFAVYFCMQSKSYPITFGQGTKLEIKRTVAAPSVFIFPPSDEQLKSGTASVVCLLNNFYPREAKVQWKVDNALQSGNSQESVTEQDSKDSTYSLSSTLTLSKADYEKHKVYACEVTHQGLSSPVTKSFNRGEC
heavy: not shown
notes: IgG1 subtype; full-length TNFR2 antibody with 4-1BB scFv at the N-terminus of the light chains

molecular target: T2, Human 4-1BB His (human, UniProt Q07011 24-186); assay: BLI, antibody on AHC sensor, 100 nM 4-1BB His in solution
T2 construct: Bought protein; lots 198-2146F1-W6 and 2407c-214FF1-YC; also called human 4-1BB protein; 4-1BB protein; not shown: His tag
From the text: The variable region of the antibody sequence of the positive control consists of SEQ ID NO: 15 and SEQ ID NO: 19, with the addition of the constant region of human IgG1 (SEQ ID NO: 46 and SEQ ID NO: 47). The AHC sensor was soaked in 0.02% PBST (0.02% Tween 20, pH 7.4, 1× PBS) as a buffer for 600 s to remove the sucrose covering the sensor surface. The AHC sensor was equilibrated with 0.02% PBST (0.02% Tween 20, pH 7.4, 1× PBS) as a buffer for 60 s, the antibody in the sample plate was solidified for 300 s, and the secondary equilibration buffer was used for 180 s. 100 nM human 4-1BB His (manufacturer: Acro, CAT: 41B-H5258, LOT: 198-2146F1-W6) protein was bound to the antibody for 300 s and then dissociated for 600 s. After dissociation, 10 mM glycine (pH 2.0) was used as a regeneration buffer for 30 s. The sensor was regenerated with 10 mM glycine (pH 2.0).

T2 sequence (Q07011 24-186 limits assumed): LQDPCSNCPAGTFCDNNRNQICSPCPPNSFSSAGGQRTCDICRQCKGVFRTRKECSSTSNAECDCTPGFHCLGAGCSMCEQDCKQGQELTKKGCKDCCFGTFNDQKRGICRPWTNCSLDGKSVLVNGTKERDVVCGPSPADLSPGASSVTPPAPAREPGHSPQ

Row | Kd [pM] | koff [s⁻¹] | kon [M⁻¹ s⁻¹] | Binder
1 | 12200 | 0.00616 | 503000 | B1
2 | 17500 | 0.00647 | 369000 | B2
3 | 18100 | 0.00546 | 302000 | B3
4 | 6420 | 0.00435 | 677000 | B4

molecular target: T3, Human 4-1BB Fc (human, UniProt Q07011 24-186); assay: bridging ELISA: Human 4-1BB Fc coated (0.3 ug/mL), antibody titrated, then Human-TNFR2-His (0.3 ug/mL), HRP anti-His detection (Example 4)
T3 construct: same catalogue and lot number as Human 4-1BB His; not shown: Fc
T3 sequence (Q07011 24-186 limits assumed): as above

Row | EC50 (read off the curve) [pM] | Binder
5 | ~200 | B1
6 | ~200 | B2
7 | ~200 | B3
8 | ~300 | B4

molecular target: T1, Human TNFR2 mFc; assay: bridging ELISA: Human TNFR2 mFc coated (0.3 ug/mL), antibody titrated, then Human 4-1BB His (0.3 ug/mL), HRP anti-His detection (Example 5)

Row | EC50 (read off the curve) [pM] | Binder
9 | ~70 | B1
10 | ~90 | B2
11 | ~70 | B3
12 | ~70 | B4
